The values below come from the supplement of paper PMC10567573.

This series is described as follows: protein stability index of a GFP-peptide fusion (GPS, HEK-293T) (PSI 1-6); higher = more stable. Conditions: c terminus: a fixed tail appended.

± gives the standard deviation.
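Also: 24-mer peptide tiles fused after GFP, lentivirally expressed, FACS-sorted into six equal bins by GFP/DsRed ratio, decoded by Illumina sequencing, PSI is the read-weighted mean bin number.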

Consider ESSLGSESEEEEEFYDADEETQMI [SLC22A15], for which the protein stability index (treatment: DMSO) worked out at 5.05 ± 0.24 and the protein stability index (treatment: MLN4924 1 uM, 8 h) was found to be 4.88 ± 0.3.
The matching figures for SLDESVIYGPGNLSTNNNTLRDHF [SLC2A12]: 3.63 ± 0.31 and 3.6 ± 0.27.
In the case of VSNTPLRTVDGSPMMKAAMYSVEI [PALM], the protein stability index (treatment: DMSO) stood at 2.27 ± 0.4 and the protein stability index (treatment: MLN4924 1 uM, 8 h) turned out to be 2.42 ± 0.17.
Turning to SGMTEVERTYSANCSDFLESKGCF [SPATS1], the protein stability index reads like this: (treatment: DMSO) 3.62 ± 0.24; (treatment: MLN4924 1 uM, 8 h) 3.62 ± 0.43.
As to QRRHGWNPKDCSENIEVKEGGLYF [SPSB2], the protein stability index stood at 3.45 ± 0.31 (treatment: DMSO) and 3.76 ± 0.46 (treatment: MLN4924 1 uM, 8 h).
Consider QDFAKDLLKTLYNSIKNEKLEWAI [PSD2], for which the protein stability index amounted to 2.32 ± 0.47 (treatment: DMSO) and 2.23 ± 0.25 (treatment: MLN4924 1 uM, 8 h).
Regarding NVGGALYYTTMQTLTKQDTMLKAM [KCTD10], the protein stability index (treatment: DMSO) came to 2.6 ± 0.35 and the protein stability index (treatment: MLN4924 1 uM, 8 h) was 2.38 ± 0.54.
For ADSETPTIQKGSYTFVPWLLSFKR [TNFSF13B], the protein stability index (treatment: DMSO) turned out to be 2.52 ± 0.28 and the protein stability index (treatment: MLN4924 1 uM, 8 h) stood at 2.58 ± 0.26.
The matching figures for HLPWQYHAGQGGLFYSAEVEMLCD [CCDC3]: 2.94 ± 0.44 and 2.52 ± 0.2.
Regarding AAFVRAQADLLAHLVPEPDRLEEQ [DNAAF3], the protein stability index is 4.05 ± 0.13 (treatment: DMSO) and 4.12 ± 0.29 (treatment: MLN4924 1 uM, 8 h).
Regarding AFNFLLVWYYCTLTIRESILINNG [TMEM120A], the protein stability index is, setting by setting: (treatment: DMSO) 2.87 ± 0.055; (treatment: MLN4924 1 uM, 8 h) 3.15 ± 0.51.
The matching figures for LQHAVELKPLCGCHSFAAAADGPT [SMAD6]: 3.16 ± 0.21 and 3.17 ± 0.28.
The matching figures for LKSQPLPLRSSLPISLQATPATPA [TFE3]: 3.92 ± 0.14 and 4 ± 0.26.
The matching figures for FYGLLFTSENLKLVHIVCHKKTTH [DFFB]: 2.73 ± 0.56 and 2.58 ± 0.31.
With VEYEERESEFDIEDEDKSEPEQTG [RBBP5], the protein stability index is, setting by setting: (treatment: DMSO) 5.64 ± 0.23; (treatment: MLN4924 1 uM, 8 h) 5.54 ± 0.32.
The matching figures for LPPDMTVVPGDHLLEPEVADGGGA [KCNA3]: 5.35 ± 0.39 and 5.42 ± 0.096.
The matching figures for HNCVDLMQAAEVFSQKHFPEVVQH [KLHL12]: 3.17 ± 0.16 and 3.14 ± 0.38.
On to LPGRGRVLSSWSRAFVSIQEEMAE [RHOBTB2], for which the protein stability index (treatment: DMSO) worked out at 3.08 ± 0.54 and the protein stability index (treatment: MLN4924 1 uM, 8 h) turned out to be 3.25 ± 0.27.
ENCERREAFWAEWKDLTLSTRPEE [TCAP] gave a protein stability index (treatment: DMSO) of 4.53 ± 0.097 and a protein stability index (treatment: MLN4924 1 uM, 8 h) of 4.68 ± 0.2.
For EFLELSPQKLKEVISLEKLNVGNE [GAN], the protein stability index reads like this: (treatment: DMSO) 3.44 ± 0.61; (treatment: MLN4924 1 uM, 8 h) 3.09 ± 0.51.
The matching figures for QEYNIPGVIQSVIGWKTVRMYPFQ [CDS2]: 2.45 ± 0.67 and 2.42 ± 0.3.
The matching figures for EWIKLDYHRRHNPKTNEDFEFLYN [IQUB]: 2.12 ± 0.19 and 2.24 ± 0.18.
The matching figures for SSPSNMLPVRPQTNALIGGPMPMS [CLINT1]: 3.85 ± 0.22 and 3.7 ± 0.25.
Turning to HPAATALHAELCQAGSSQGLSLCQ [LPCAT4], the protein stability index is, setting by setting: (treatment: DMSO) 4.22 ± 0.29; (treatment: MLN4924 1 uM, 8 h) 4.13 ± 0.16.
On to QSSGLIRHQRIHTGERPYECNECG [ZSCAN9], for which the protein stability index was found to be 4.03 ± 0.36 (treatment: DMSO) and 4 ± 0.49 (treatment: MLN4924 1 uM, 8 h).
The matching figures for ACTRSLLGDPPPLLTLPRPPLSGA [HDAC6]: 3.44 ± 0.37 and 3.58 ± 0.26.
Consider IPAGARDIQIVERKKSADVLALAD [ADAMTSL2], for which the protein stability index reads like this: (treatment: DMSO) 4.68 ± 0.32; (treatment: MLN4924 1 uM, 8 h) 4.86 ± 0.38.
On to GGLLTGNEKITMQNLNDRLASYLE [KRT13], for which the protein stability index worked out at 3.19 ± 0.15 (treatment: DMSO) and 3.24 ± 0.13 (treatment: MLN4924 1 uM, 8 h).
For the sequence TAHADEFDCPSELQHTQELFPQWH [STEAP1], the protein stability index runs as follows: (treatment: DMSO) 3.79 ± 0.15; (treatment: MLN4924 1 uM, 8 h) 3.84 ± 0.07.
The matching figures for SDPEISDVDEDEPGGLVGSADVVS [PPFIA4]: 5.54 ± 0.34 and 5.35 ± 0.45.
The matching figures for HSGYDFGYLIKILTNSNLPEEELD [CNOT7]: 2.27 ± 0.19 and 2.48 ± 0.3.
In turn, LKPTLTIIKTEKVDLELFPSPDME [ETS1] gave a protein stability index (treatment: DMSO) of 3.4 ± 0.18 and a protein stability index (treatment: MLN4924 1 uM, 8 h) of 3.21 ± 0.32.
The matching figures for LTEASAHSHPPEIKDQGGAGEGLV [MAP2]: 5.57 ± 0.15 and 5.56 ± 0.2.
The matching figures for LEAVLHCHQMGVVHRDLKPENLLL [CAMK2B]: 2.22 ± 0.3 and 2.15 ± 0.35.
The matching figures for SSSQKEESPSTLQVLPDSESLPRS [MAGEA10]: 5.36 ± 0.23 and 5.4 ± 0.16.
FRENGRNCKRERDARVKRKLRGPE [TBX6] came in with a protein stability index (treatment: DMSO) of 3.92 ± 0.3 and a protein stability index (treatment: MLN4924 1 uM, 8 h) of 4.05 ± 0.22.
On to PVACGSVLSEGSPLTEQEESSPSH [SRPK2], for which the protein stability index amounted to 5.52 ± 0.17 (treatment: DMSO) and 5.51 ± 0.17 (treatment: MLN4924 1 uM, 8 h).
Consider KRRGPQRSVDVVVSSVFLLTLSIA [PHTF1], for which the protein stability index reads like this: (treatment: DMSO) 2.55 ± 0.32; (treatment: MLN4924 1 uM, 8 h) 2.33 ± 0.23.
The sequence AVMEHAESKMYATSPYSDPVVSMD [PTPRD] had a protein stability index (treatment: DMSO) of 4.3 ± 0.36 and a protein stability index (treatment: MLN4924 1 uM, 8 h) of 4.24 ± 0.53.
The matching figures for VKVIRDFTTNKCKGFGFVTMTNYD [ELAVL3]: 2.35 ± 0.47 and 2.15 ± 0.22.
The matching figures for ERDTLSIRESRLFGAVVRWAEAEC [BTBD1]: 3.13 ± 0.21 and 3.12 ± 0.34.
The matching figures for LKDLLLQVGRGLRYIHSMSLVHMD [WEE1]: 2.64 ± 0.74 and 2.85 ± 0.69.
As for FDPLPPSDTIYSYVRPERLSPISH [TCF25], the protein stability index runs as follows: (treatment: DMSO) 3.07 ± 0.17; (treatment: MLN4924 1 uM, 8 h) 3.14 ± 0.42.
In the case of KAQLLEQAQGQLRELLDRAMREAI [SOAT2], the protein stability index (treatment: DMSO) was determined as 2.29 ± 0.33 and the protein stability index (treatment: MLN4924 1 uM, 8 h) came to 2.37 ± 0.42.
In the case of SIESIKWMIEEKATITSRGSSLSG [LURAP1L], the protein stability index is 3.1 ± 0.2 (treatment: DMSO) and 3.39 ± 0.41 (treatment: MLN4924 1 uM, 8 h).
With VRDSDSLAESEFESAAFSQGSRSG [PHTF1], the protein stability index is, setting by setting: (treatment: DMSO) 5.15 ± 0.26; (treatment: MLN4924 1 uM, 8 h) 5.13 ± 0.28.
The matching figures for WFIHLVFVVLAFLTGVLCSYPNPN [TMEM192]: 3.346 ± 0.002 and 2.89 ± 0.56.
Turning to DSSIIRTTQDLFAINRDTAFPGAS [RHOBTB3], the protein stability index by setting is: (treatment: DMSO) 3.91 ± 0.23; (treatment: MLN4924 1 uM, 8 h) 3.94 ± 0.23.
Take HQDVDLVCINLPPPLTRQIAVKTL [GFOD1]: the protein stability index is 2.47 ± 0.33 (treatment: DMSO) and 2.53 ± 0.27 (treatment: MLN4924 1 uM, 8 h).
On to ESTIVELGSIFQQLAHMVKEQEET [STX5], for which the protein stability index (treatment: DMSO) stood at 2.4 ± 0.7 and the protein stability index (treatment: MLN4924 1 uM, 8 h) worked out at 3.25 ± 0.094.
With DSVLERWVNDPQRMDKRTLALLVL [GOLPH3L], the protein stability index (treatment: DMSO) amounted to 2.21 ± 0.28 and the protein stability index (treatment: MLN4924 1 uM, 8 h) came to 2.31 ± 0.28.
The matching figures for YHYGVASCEACKAFFKRTIQGNIE [ESRRG]: 2.43 ± 0.19 and 2.65 ± 0.58.
